Substrate: O=P(O)(O)CCO
Experiment: purified protein
Details: O2 co-substrate
[1] = enzyme saturated with Fe(II) (more than 1 equivalent)

Protein | Km (Fe(II)) [µM] | kcat (Fe(II)) [s⁻¹] | Km (Fe(II), labelled compound) [µM] | kcat (Fe(II), labelled compound) [s⁻¹] | Km [1] [µM] | kcat [1] [s⁻¹]
2-hydroxyethylphosphonate dioxygenase (HEPD) (Streptomyces viridochromogenes DSM 40736) (protein) MRIDPFKLAHWMNARKYTAAQTADLAGLPLDDLRRLLGDEANEPDPAAATALAEALSVEPSQLAADAHRNLTVVHKSAEEMHASRRPIQRDGIHFYNYYTLAAPEGRVAPVVLDILCPSDRLPALNNGHLEPAITVNLGPGDINGRWGEEITPQTWRVLHANHGGDRWITGDSYVEPSYCPHSYSLAGDAPARIVSYTAQSNISPLMTEANNWSTGAFEEALKALSGKVSAGSVLDLFLARRAHTRTSAAEAAGVPPADLEAALRSPASETGLTVLRTLGRALGFDYRVLLPADDQHDGVGKTWTTIEDSRRSRRTFGTYEAASMASAAHLPDLVGSFLRVDADGRGADLIDHAENHYVVTEGRLTLEWDGPDGPASVELEPDGSAWTGPFVRHRWHGTGTVLKFGSGAHLGYQDWLELTNTFEPAATLRRGRRDLAGWGYDN | 8 ± 1 | 0.3 ± 0.01 | 10 ± 2 | 0.31 ± 0.01 | – | –
2-hydroxyethylphosphonate dioxygenase (HEPD) (Streptomyces viridochromogenes DSM 40736; E176H) (protein) MRIDPFKLAHWMNARKYTAAQTADLAGLPLDDLRRLLGDEANEPDPAAATALAEALSVEPSQLAADAHRNLTVVHKSAEEMHASRRPIQRDGIHFYNYYTLAAPEGRVAPVVLDILCPSDRLPALNNGHLEPAITVNLGPGDINGRWGEEITPQTWRVLHANHGGDRWITGDSYVHPSYCPHSYSLAGDAPARIVSYTAQSNISPLMTEANNWSTGAFEEALKALSGKVSAGSVLDLFLARRAHTRTSAAEAAGVPPADLEAALRSPASETGLTVLRTLGRALGFDYRVLLPADDQHDGVGKTWTTIEDSRRSRRTFGTYEAASMASAAHLPDLVGSFLRVDADGRGADLIDHAENHYVVTEGRLTLEWDGPDGPASVELEPDGSAWTGPFVRHRWHGTGTVLKFGSGAHLGYQDWLELTNTFEPAATLRRGRRDLAGWGYDN | – | – | – | – | 23 ± 3 | 0.38 ± 0.01

— publication PMC4487810
